# From US20230212587A1, “Mutant Hydroxyphenylpyruvate Dioxygenase Polypeptide, Encoding Gene Thereof and Use Therefor” (Beijing Dabeinong Biotechnology Co., Ltd., priority 2019, published 2023)
# B1: TaHPPDm-F372V: Triticum aestivum HPPD mutant F372V, SEQ ID NO: 353 (protein)
# chain: MPPTPTTPAATGAGAAAAVTPEHARPRRMVRFNPRSDRFHTLSFHHVEFWCADAASAAGRFAFALGAPLAARSDLSTGNSVHASQLLRSGNLAFLFTAPYANGCDAATASLPSFSADAARRFSADHGLAVRSIALRVADAAEAFRASVDGGARPAFSPVDLGRGFGFAEVELYGDVVLRFVSHPDGTDVPFLPGFEGVSNPGAVDYGLTRFDHVVGNVPELASAAAYVAGFTGFHEFAEFTTEDVGTAESGLNSMVLANNSEGVLLPLNEPVHGTKRRSQIQTFLEHHGGPGVQHIAVASSDVLRTLREMRARSAMGGFDFLPPPLPKYYEGVRRIAGDVLSEAQIKECQELGVLVDRDDQGVLLQIVTKPVGDRPTLFLEMIQRIGCMEKDERGEEYQKGGCGGFGKGNFSELFKSIEDYEKSLEAKQSAAVQGS
# modifications: TaHPPDm-F372V Amino Acid Sequence
# B2: PfHPPDm-F372A-G413W: Pseudomonas fluorescens HPPD with F372A and G336W (position 413 of SEQ ID NO: 1), SEQ ID NO: 416 (protein)
# chain: MADLYENPMGLMGFEFIEFASPTPGTLEPIFEIMGFTKVATHRSKNVHLYRQGEINLILNNEPNSIASYFAAEHGPSVCGMAFRVKDSQKAYNRALELGAQPIHIDTGPMELNLPAIKGIGGAPLYLIDRFGEGSSIYDIDFVYLEGVERNPVGAGLKVIDHLTHNVYRGRMVYWANFYEKLFNFREARYFDIKGEYTGLTSKAMSAPDGMIRIPLNEESSKGAGQIEEFLMQFNGEGIQHVAFLTDDLVKTWDALKKIGMRFMTAPPDTYYEMLEGRLPDHGEPVDQLQARGILLDGSSVEGDKRLLLQIASETLMGPVFFEFIQRKGDDGFGEWNFKALFESIERDQVRRGVLTAD
# modifications: PfHPPDm-F372A-G413W Amino Acid Sequence
# Columns and labels:
# [1] = tested on: Arabidopsis thaliana T1 plants; assay: Topramezone tolerance of transgenic Arabidopsis thaliana T1 plants (pesticide damage grade by bleached leaf area, score, resistance evaluation); type: in vivo; conditions: for Resistance evaluation: HPPD F372V mutants, Table 7; for Grade 0 (number of plants) / Grade 1 (number of plants) / Grade 2 (number of plants) / Grade 3 (number of plants) / Resistance Grade / score: mutation combination, Table 8
# Procedure, shortened: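 Eighteen days after sowing, wild-type and HPPD-transgenic T1 Arabidopsis receive a topramezone spray at 1×, 2× or 4× field rate (25–100 g ai/ha) or water. Seven days later each plant is graded by its proportion of bleached leaf area.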
# soybean T1 plants = assay: Herbicide tolerance of transgenic soybean T1 plants to topramezone; type: in vivo; conditions: topramezone 50 and 100 g ai/ha, 7 DAT, compared to control vector DBN11375NN and wild-type
# Description: The Arabidopsisthaliana T1 plants into which the AsHPPDm-F372A-02 nucleotide sequence was introduced, Arabidopsis thaliana T1 plants into which the AsHPPD-02 nucleotide sequence was introduced and wild-type Arabidopsisthaliana plants (18 days after sowing) were sprayed with topramezone at four different concentrations, i.e., 25 g ai/ha (one-fold field concentration, 1×), 50 g ai/ha (two-fold field concentration, 2×), 100 g ai/ha (four-fold field concentration, 4×) and 0 g ai/ha (water, 0×) to determine the tolerance of Arabidopsisthaliana to the herbicide. The degree of damage caused by the herbicide was measured for each plant according to the proportion of bleached leaf area (the proportion of bleached leaf area=bleached leaf area/total leaf area×100%) 7 days after spraying (7 DAT): the case where there is basically no bleached phenotype is defined as grade 0, the case where the proportion of bleached leaf area is less than 50% is defined as grade 1,the case where the proportion of bleached leaf area is more than 50% is defined as grade 2, and the case where the proportion of bleached leaf area is 100% grade is defined as grade 3.
# The soybean T1 plants into which the AsHPPDm-F372A-02 nucleotide sequence was introduced, soybean T1 plants into which the ZmHPPDm-F372A-02 nucleotide sequence was introduced, soybean T1 plants into which the PfHPPDm-F372A-02 nucleotide sequence was introduced, soybean T1 plants into which the AsHPPDm-F372A-A110 nucleotide sequence was introduced, soybean T1 plants into which, the PfHPPDm-F372A-G413W nucleotide sequence was introduced, soybean T1 plants into which the control vector DBN11375NN was introduced and wild-type soybean plants (V3-V4 at seedling stage) were sprayed with topramezone at two different concentrations respectively, i.e. 50 g ai/ha (2-fold field concentration, 2 ×) and 100 g ai/ha (4-fold field concentration, 4 ×) to detect the herbicide tolerance of soybean plants. According to the method in point 6 of Example 1, after 7 days of spraying (7 DAT), the damage degree of each plant by the herbicide was statistically analyzed, and the scoring and resistance evaluation were carried out accordingly. The soybean plants into which the AsHPPDm-F372A-02 nucleotide sequence was introduced were of two strains in total (S1 and S2), the soybean plants into which the ZmHPPDm-F372A-02 nucleotide sequence was introduced were of two strains in total (S3 and S4), the soybean plants into which the PfHPPDm-F372A-02 nucleotide sequence was introduced were of two strains in total (S5 and S6), the soybean plants into which the AsHPPDm-F372A-Al 10 nucleotide sequence was introduced were of two strains in total (S7 and S8), the soybean plants into which the PfHPPDm-F372A-G413W nucleotide sequence was introduced were of two strains in total (S9 and S10), the soybean plants into which the control vector DBN11375NN nucleotide sequence was introduced were of one strain in total (S11), and the wild-type soybean plants were of one strain in total (CK1); and 8 plants were selected from each strain and detected.
Molecule,Resistance evaluation ([1]; topramezone 25 g ai/ha (1x)),Resistance evaluation ([1]; topramezone 100 g ai/ha (4x)),Grade 0 (number of plants) ([1]; topramezone 25 g ai/ha),Grade 1 (number of plants) ([1]; topramezone 25 g ai/ha),Grade 2 (number of plants) ([1]; topramezone 25 g ai/ha),Grade 3 (number of plants) ([1]; topramezone 25 g ai/ha),Resistance Grade ([1]; topramezone 25 g ai/ha),score ([1]; topramezone 25 g ai/ha),Grade 0 (number of plants) ([1]; topramezone 100 g ai/ha),Grade 1 (number of plants) ([1]; topramezone 100 g ai/ha),Grade 2 (number of plants) ([1]; topramezone 100 g ai/ha),Grade 3 (number of plants) ([1]; topramezone 100 g ai/ha),Resistance Grade ([1]; topramezone 100 g ai/ha),score ([1]; topramezone 100 g ai/ha),"tolerance to topramezone, in words (soybean T1 plants)"
B1,Highly resistant,Moderately resistant,,,,,,,,,,,,,
B2,,,20,0,0,0,Highly resistant,0,20,0,0,0,Highly resistant,0,higher tolerance
